According to paper doi:10.1101/2022.09.07.506877:

Target: Sb-gRAMP (type III-E CRISPR effector, Cas7-11);TPR-CHAT (caspase-like peptidase) (Candidatus "Scalindua …, UniProt A0A0B0EGF3;A0A0B0EKL4 1-1717;1-716, |)
Assay: cryo-EM structure

B1: crRNA (37 nt) / target ssRNA (18 nt as modelled) (structured_RNA)
RNA 1: GGACUUAAUGUCACGGUACCCAAUUUUCUGCCCCGGA
RNA 2: UCCGGGGCAGAAAAUUGG
B1: binds.
